Data published in the supplement of paper PMC9170038.

Tested on: MS2 coat protein
Assay: apparent KD of MS2 coat protein; designed switch direction (-1 OFF switch, 1 ON switch): -1; higher = weaker reporter binding
In short: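 Three titration conditions were used: no input, 200 uM small-molecule ligand, and an oligonucleotide input. In each, SNAP-549-labelled MS2 coat protein was raised from 0.7 or 1.5 nM, doubling, to 3 µM over designed RNA switches transcribed on Illumina chips by stalled E. coli RNA polymerase. Curve fits of normalised cluster fluorescence gave values whose per-design median over clusters is the apparent KD.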

[1] = Eterna round: R95, input ligand: FMN 200 uM
[2] = Eterna round: R95, input ligand: microRNA oligo, concentration not stated
[3] = Eterna round: R95, input ligand: none

Q: For “GAGGCAUGCCGAGGUCCACACAUGAGGAUCACCCAUGUAAUGACAGGCUUUUUACUCGUUUUAUCGCUAUCGCGUUC [Incebece] (puzzle: Sensor v3, turn-off variant 1)”, which “apparent KD of MS2 coat protein” value [1] is on record?
A: Its value is 0.0135 µM.

Q: And the “apparent KD of MS2 coat protein” value [2]?
A: Its value is 0.0264 µM.

Q: What about the “apparent KD of MS2 coat protein” value [3] of the same sequence?
A: Its value is 0.0128 µM.

Q: What does the source list for “GAGGGACAUGAGGAUCACCCAUGUGAGGAUAUGUAAGAGAGAGGAGAGAGGAUAAGAAACAGAAGGCGCGUGAG [JR_Exclu1_Sub089] (puzzle: Exclusion 1)”?
A: apparent KD of MS2 coat protein [1]: 0.0301 µM; apparent KD of MS2 coat protein [2]: 0.0557 µM; apparent KD of MS2 coat protein [3]: 0.0432 µM

Q: “GAGGGACAUGAGGAUCACCCAUGUGAGGAUAUGUGAGAAGGAUUGGAGAGAAUAAGAAACAGAAGGCGCGGGAG [JR_Exclu1_Sub087] (puzzle: Exclusion 1)” was tested. Which “apparent KD of MS2 coat protein” value [1] did it give?
A: Its value is 0.0489 µM.

Q: What about the “apparent KD of MS2 coat protein” value [2] of the same sequence?
A: The value was 0.0525 µM.

Q: What about the “apparent KD of MS2 coat protein” value [3] of the same sequence?
A: Its value is 0.116 µM.

Q: Which “apparent KD of MS2 coat protein” value (input ligand: FMN 200 uM) does the source give for “GAGGUUUCAGGAUAUACAUGAGGAUCACCCAUGUUAUUAGUGUGGAUUGGUGUCCUGCGUAGAAGGGAGUAUAA [Eternabot (L2) Solution 93] (Eterna round: R97, puzzle: Exclusion 3)” here?
A: The value was 0.0657 µM.

Q: And the “apparent KD of MS2 coat protein” value (input ligand: none)?
A: Its value is 0.0572 µM.

Q: How did the “apparent KD of MS2 coat protein” value (input ligand: FMN 200 uM) turn out when “GAGUAGAGAGGAUAUGCAAUGAUCAUCGUACGAUGAGGCUGACAUGAGGAUCACCCAUGUAGAAGGCUCUGAUC [EX2 #19] (Eterna round: R97, puzzle: Exclusion 2)” was run?
A: Its value is 0.0221 µM.

Q: What about the “apparent KD of MS2 coat protein” value (input ligand: none) of the same sequence?
A: The value was 0.0307 µM.

Q: For “GAGUAGGGAGGAUAUGCAGAAUGACUCGUAAGUAAGAUAGGACAUGAGGAUCACCCAUGUAGAAGGCUCUGAUG [jun14#1] (Eterna round: R97, puzzle: Exclusion 2)”, which “apparent KD of MS2 coat protein” value (input ligand: FMN 200 uM) is on record?
A: The value was 0.0463 µM.

Q: And the “apparent KD of MS2 coat protein” value (input ligand: none)?
A: Its value is 0.042 µM.

Q: For “GAGUGACAUGAGGAUCACCCAUGUAAGGAUAUACGGUUGGUAGAGAGAGGGAGAAAGGGUAGAAGGUACGAAGG [JR_Exclu1_Sub053] (puzzle: Exclusion 1)”, which “apparent KD of MS2 coat protein” value [1] is on record?
A: The value was 0.0455 µM.

Q: What about the “apparent KD of MS2 coat protein” value [2] of the same sequence?
A: Its value is 0.0441 µM.

Q: And the “apparent KD of MS2 coat protein” value [3]?
A: Its value is 0.101 µM.

Q: For “GAGUGACAUGAGGAUCACCCAUGUAAGGAUAUACGGUUGGUAGAGAGAGGGCUAAAGGGUAGAAGGUACGAAGG [JR_Exclu1_Sub055] (puzzle: Exclusion 1)”, which “apparent KD of MS2 coat protein” value [2] is on record?
A: Its value is 0.0631 µM.

Q: How did the “apparent KD of MS2 coat protein” value [1] turn out when “GAGUGACAUGAGGAUCACCCAUGUGAGGAUAUCGGACGGACCAAAUUAACAAUAAAAGCGAGAAGGCACAUCGG [Exclusion 1 V12] (puzzle: Exclusion 1)” was run?
A: The value was 0.0647 µM.

Q: What about the “apparent KD of MS2 coat protein” value [2] of the same sequence?
A: Its value is 0.0576 µM.

Q: What about the “apparent KD of MS2 coat protein” value [3] of the same sequence?
A: The value was 0.0665 µM.

Q: With “GAGUGACAUGAGGAUCACCCAUGUGAGGAUAUCGGACGGACCAAAUUAACAAUAUUUGCGAGAAGGCACAUCGG [Exclusion 1 V17] (puzzle: Exclusion 1)” as the sequence, how does the “apparent KD of MS2 coat protein” value [2] read?
A: The value was 0.0822 µM.

Q: How did the “apparent KD of MS2 coat protein” value [2] turn out when “GAGUGACAUGAGGAUCACCCAUGUGAGGAUAUCGGACGGACCUUGUUGGCUUCCGCCGCGAGAAGGCACAUCGG [Exclusion 1 V26] (puzzle: Exclusion 1)” was run?
A: Its value is 0.0875 µM.

Q: For “GAGUGCCGAGGAUAUACAAAUAUCCGCUAAUUAAUGCGAAAACAUGAGGAUCACCCAUGUAGAAGGCUGCACUC [AK-MS2ROC-r4-exclusion2-3] (Eterna round: R97, puzzle: Exclusion 2)”, which “apparent KD of MS2 coat protein” value (input ligand: FMN 200 uM) is on record?
A: The value was 0.0139 µM.

Q: And the “apparent KD of MS2 coat protein” value (input ligand: none)?
A: The value was 0.00944 µM.

Q: Which “apparent KD of MS2 coat protein” value (input ligand: FMN 200 uM) does the source give for “GAGUGCUGAGGAUAUACAUGAGGAUCACCCAUGUGCUUCAGCUAGGAGACUAGCAUCGGUAGAAGGCAGUACUC [Mod of lroppy 18 - Jieux - Exclusion 3] (Eterna round: R97, puzzle: Exclusion 3)” here?
A: Its value is 0.0601 µM.

Q: And the “apparent KD of MS2 coat protein” value (input ligand: none)?
A: Its value is 0.0172 µM.

Q: With “GAGUUAACGUGAGGAAUAUACAUGAGGAUCACCCAUGUUAACAAAUAUAUUGCUCGUCUUAUAACAACAAUUAACUC [Alarm 7 - Jieux - Sensor, turn-off variant 1] (Eterna round: R97, puzzle: Sensor, turn-off variant 1)” as the sequence, how does the “apparent KD of MS2 coat protein” value (input ligand: FMN 200 uM) read?
A: The value was 0.0229 µM.

Q: And the “apparent KD of MS2 coat protein” value (input ligand: none)?
A: Its value is 0.0228 µM.

Q: “GAGUUACAUGAGGAUCACCCAUGUGAGGAUAUGAGUCAGUCACGGUGACGUGGCUGACUCAGAAGGCACUAUGG [Mat - Exclusion 1 - JL Mod - D43] (Eterna round: R97, puzzle: Exclusion 1)” was tested. Which “apparent KD of MS2 coat protein” value (input ligand: FMN 200 uM) did it give?
A: Its value is 0.0528 µM.

Q: What about the “apparent KD of MS2 coat protein” value (input ligand: none) of the same sequence?
A: The value was 0.233 µM.

Q: Which results are given for “GAGUUAGCGUGAGGAAUAUACAUGAGGAUCACCCAUGUUAACAAAUAUAUUGCUCGUCUUAUAACAACAAUUAACUC [Alarm 8 - Jieux - Sensor, turn-off variant 1] (Eterna round: R97, puzzle: Sensor, turn-off variant 1)”?
A: apparent KD of MS2 coat protein (input ligand: FMN 200 uM): 0.0149 µM; apparent KD of MS2 coat protein (input ligand: none): 0.0165 µM

Q: Which results are given for “GAGUUAGCGUGAGGAAUAUACAUGAGGAUCACCCAUGUUAGCUAAUAUAUUGCUCGUCUUAUAACAACAAUUAACUG [Mod JX-Electric-eye] (Eterna round: R97, puzzle: Sensor, turn-off variant 1)”?
A: apparent KD of MS2 coat protein (input ligand: FMN 200 uM): 0.0142 µM; apparent KD of MS2 coat protein (input ligand: none): 0.0159 µM

Q: How did the “apparent KD of MS2 coat protein” value (input ligand: FMN 200 uM) turn out when “GAGUUAGCGUGAGGAAUAUACAUGAGGAUCACCCAUGUUGGCUAAUAUAUUGCUCGUCUUAUAACAACAAUUAACUG [Mod-hoo-honey#a] (Eterna round: R97, puzzle: Sensor, turn-off variant 1)” was run?
A: Its value is 0.016 µM.

Q: And the “apparent KD of MS2 coat protein” value (input ligand: none)?
A: The value was 0.0164 µM.

Q: Which “apparent KD of MS2 coat protein” value [2] does the source give for “GAUAAGCUAGGAUAUACAUAUUAUUUAAUAUCCUCAUUAAUACAUGAGGAUCACCCAUGUAGAAGGAGCAAUAG [Mat - Exclusion 2 - Mod of Hog - D90] (puzzle: Exclusion 2)” here?
A: The value was 0.108 µM.

Q: “GAUACACAUGAGGAUCACCCAUGUGAGGAUAUGCGUACGUUGUCCGUAGGCGACGUGCGCAGAAGGCGCGUGAG [Mat - Mod of JL D88] (puzzle: Exclusion 1)” was tested. Which “apparent KD of MS2 coat protein” value [2] did it give?
A: Its value is 0.0464 µM.

Q: Which “apparent KD of MS2 coat protein” value (input ligand: FMN 200 uM) does the source give for “GAUACCUCAGUGAGGAUAUUUUAUAGAUUAACCAGGAAGAAGGCACAUGAGGAUCACCCAUGUCCACGGCAGCC [Eternabot (L1) Solution 10] (Eterna round: R97, puzzle: Brourd's mod of Exclusion 4)” here?
A: The value was 0.0232 µM.

Q: What about the “apparent KD of MS2 coat protein” value (input ligand: none) of the same sequence?
A: Its value is 0.0209 µM.

Q: For “GAUAGAGAGCAGGAUAUCUUGGGUUAGUAUCGUAGAGAAGGGCUCACAUGAGGAUCACCCAUGUGGUCCAAGAU [JL Dibiri mod 02] (puzzle: Exclusion 6)”, which “apparent KD of MS2 coat protein” value [1] is on record?
A: Its value is 0.0365 µM.

Q: And the “apparent KD of MS2 coat protein” value [2]?
A: The value was 0.0151 µM.

Q: What about the “apparent KD of MS2 coat protein” value [3] of the same sequence?
A: Its value is 0.0133 µM.

Q: How did the “apparent KD of MS2 coat protein” value (input ligand: FMN 200 uM) turn out when “GAUAUCUCAGGAUAUACAUGCCCUCCGAAACGGAGUCAUGAACAUGAGGAUCACCCAUGUAGAAGGGAGAUAUC [Alacar 2] (Eterna round: R97, puzzle: Exclusion 2)” was run?
A: The value was 0.0255 µM.

Q: And the “apparent KD of MS2 coat protein” value (input ligand: none)?
A: Its value is 0.0158 µM.

Q: For “GAUAUGGGAGUUAGGAUAUGUCGCCCGAACGGGUAAUAGAAGGGACUUGAGGAUCACCCAAGUCAUAAAGAAUA [Rainan] (Eterna round: R97, puzzle: Brourd's mod of Exclusion 4)”, which “apparent KD of MS2 coat protein” value (input ligand: FMN 200 uM) is on record?
A: The value was 0.0116 µM.

Q: What about the “apparent KD of MS2 coat protein” value (input ligand: none) of the same sequence?
A: The value was 0.0146 µM.

Q: Which results are given for “GAUAUGGUGGAGGAUAUCAUUUUGGAACCAAAGUGAGAAGGCUAAACAUGAGGAUCACCCAUGUGAAGCAAGGG [Eternabot (Original) Solution 41] (Eterna round: R97, puzzle: Exclusion 6)”?
A: apparent KD of MS2 coat protein (input ligand: FMN 200 uM): 0.0233 µM; apparent KD of MS2 coat protein (input ligand: none): 0.0204 µM

Q: What does the source list for “GAUCAACAUGAGGAUCACCCAUGUGAGGAUAUGCGAGAAUAGACUUCGGUCAGAUAGAGCAGAAGGCGCAGAUA [EX1 #3] (Eterna round: R97, puzzle: Exclusion 1)”?
A: apparent KD of MS2 coat protein (input ligand: FMN 200 uM): 0.0637 µM; apparent KD of MS2 coat protein (input ligand: none): 0.0379 µM
